In assay [1] the target is T1, human CD40 (human, UniProt P25942 21-277).
T1 construct: Native on primary human tonsillar B cells, monocyte-derived dendritic cells and RAMOS cells; stably transfected on CHO-DG44 cells; also called hCD40
Nature of the assay: CHO-CD40 cell RBA: competition with biotinylated human IZ-CD40L for human CD40 on CHO cells, fluorescence (FMAT); 0.1% BSA.

The target in assay [2] is T1, human CD40. Briefly: CHO-CD40 cell RBA: competition with biotinylated human IZ-CD40L for human CD40 on CHO cells, fluorescence (FMAT); 50 µM HSA.
Assay [3] concerns the target T2, wild type human CD40 Fc fusion (human, UniProt P25942 21-193).
T2 construct: also called wt-hCD40; not shown: human IgG1 Fc
Nature of the assay: SPR, ProteOn XPR36; CD40-Fc captured, dAb analyte; 1:1 fit;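 also: CD40-Fc captured on anti-human IgG(Fc) surface of a GLC chip, buffer pH 7.1, sensorgrams double-referenced against surfaces without CD40-Fc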; repeat.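 Also: CD40-Fc held on a GLC chip by an immobilized anti-human IgG(Fc) antibody, sensorgrams double-referenced against CD40-free surfaces, running buffer sodium phosphate with NaCl and Tween 20 at pH 7.1.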 In general terms: Surface plasmon resonance follows binding to a sensor surface in real time, without labels.

Assay [4] addresses T3, human CD40 (H76R, W109L, L121P) Fc fusion (human).
T3 construct: Same construct as wt-hCD40 with H76R, W109L and L121P; also called hCD40-M5; hCD40-M5 (H76R, W109L, L121P); not shown: human IgG1 Fc
T3 chain: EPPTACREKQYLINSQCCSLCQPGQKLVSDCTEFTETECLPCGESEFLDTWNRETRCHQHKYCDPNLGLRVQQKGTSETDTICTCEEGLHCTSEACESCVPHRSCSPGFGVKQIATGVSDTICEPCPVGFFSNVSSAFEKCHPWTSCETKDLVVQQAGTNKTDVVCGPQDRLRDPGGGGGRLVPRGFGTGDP
Nature of the assay: SPR, ProteOn XPR36; CD40-Fc captured, dAb analyte; 1:1 fit.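 Also: CD40-Fc captured on anti-human IgG(Fc) surface of a GLC chip, buffer pH 7.1, sensorgrams double-referenced against surfaces without CD40-Fc.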

In assay [5] the target is T4, wild type cynomolgus monkey CD40 Fc fusion (cynomolgus monkey (Macaca …)).
T4 construct: also called wt-cCD40; wt-cyno-CD40; not shown: human IgG1 Fc
T4 chain: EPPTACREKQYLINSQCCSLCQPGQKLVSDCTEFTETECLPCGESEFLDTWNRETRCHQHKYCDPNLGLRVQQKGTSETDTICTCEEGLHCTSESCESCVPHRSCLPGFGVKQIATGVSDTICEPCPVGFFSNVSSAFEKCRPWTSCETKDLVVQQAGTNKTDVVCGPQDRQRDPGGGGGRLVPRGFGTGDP
The assay is described as above.

The target in assay [6] is T5, human CD40 (W109L, L121P) Fc fusion (human, UniProt P25942 21-193).
T5 construct: Same construct as wt-hCD40 with W109L and L121P; also called hCD40-M4; hCD40 M4 (W109L, L121P); not shown: human IgG1 Fc
The description is as above.

Assay [7] addresses T6, human CD40 (W109R) Fc fusion (Chimpanzee CD40) (human, UniProt P25942 21-193).
T6 construct: Same construct as wt-hCD40 with W109R (the residue of chimpanzee CD40); also called hCD40-M3; hCD40 M3 (W109R); not shown: human IgG1 Fc
The description is as above.

The target of assay [8] is T7, human CD40 (W109L) Fc fusion (human, UniProt P25942 21-193).
T7 construct: Same construct as wt-hCD40 with W109L; also called hCD40-M2; hCD40 M2 (W109L); not shown: human IgG1 Fc
The assay is described as above.

The target of assay [9] is T2, wild type human CD40 Fc fusion. The description is as above.
Description: Assays were performed on a BioRad ProteOn XPR36 SPR instrument. The SPR surfaces were prepared by immobilizing 8 μg/ml anti-human IgG(Fc) antibody (Biacore/GE Healthcare) in 10 mM sodium acetate pH 4.5 on a BioRad GLC sensor chip using standard ethyl(dimethylaminopropyl) carbodiimide (EDC)/N-hydroxysuccinimide (NHS) chemistry, with ethanolamine blocking. The running buffer for immobilization and kinetic binding analysis was 10 mM sodium phosphate, 130 mM sodium chloride, 0.05% tween 20, pH 7.1. CD40-Fc fusion proteins at concentrations of 20 μg/ml were captured in the vertical orientation on these surfaces via the Fc tail, and reference surfaces lacking CD40-Fc proteins were used for reference subtraction. […] The surfaces were regenerated in both horizontal and vertical orientations with 30 s pulses of 3 M MgCl₂ followed by running buffer at 60 μl/min. Sensogram data was double-referenced and then fitted to a 1:1 Langmuir model using BioRad ProteOn Manager V.2.1.0.38 software, to determine the association rate constant (ka), the dissociation rate constant (kd), and the equilibrium dissociation constant (KD).
Assay [10] has as its target T8, human CD40 (H76R) Fc fusion (human, UniProt P25942 21-193).
T8 construct: also called hCD40-M1; hCD40 M1 (H76R); not shown: human IgG1 Fc
The description is as above.

For assay [11], the target named is T9, human serum albumin (human, UniProt P02768 25-609).
T9 construct: Amine-coupled to a CM5 BIAcore chip; also called HSA
Nature of the assay: SPR (BIAcore 3000), HSA amine-coupled on CM5 chip, ILF as analyte, 1:1 Langmuir fit, 25 C.
Excerpt: (§1) A BIAcore™ 3000 instrument (GE Healthcare) was used to analyze the binding kinetics of anti-CD40-AlbudAb ILFs to human and cynomolgus serum albumin. Approximately 400 response units (RU) of human serum albumin (HSA) or cynomolgus serum albumin (CSA) were immobilized on a flow-cell of a CM5 BIAcore™ chip using an Amine Coupling Kit (GE Healthcare). A second flow cell without any ligand immobilized served as a reference flow-cell for inline referencing. An appropriate doubling dilution series of each dAb to be analyzed was prepared in HBS-EP buffer (0.01 M HEPES pH 7.4 with 0.15 M NaCl, 3 mM EDTA and 0.005% v/v Surfactant P20, GE Healthcare). Two hundred microlitres of each ILF were injected in duplicate using the instrument's KINJECT function. The injections were made across the serum albumin-immobilized and reference flow-cells in series, with inline subtraction of the signal from the reference cell. The experiment was performed at 25° C. and a flow rate of 40 μl/min of HBS-EP. After each injection had been completed, the dAb was allowed to dissociate from the ligand in buffer for 120 s before regeneration with a 10 μl injection of 10 mM glycine pH 2.0. A reference injection of HBS-EP buffer blank (containing no analyte) was also injected under the same conditions to serve as a second reference for subtraction from each analyte trace. BIAevaluation 4.1 software (GE Healthcare) was used to subtract both the reference flow-cell trace and the buffer blank trace from each analyte trace.
(§2) The same software was used to perform a simultaneous, global fit of a 1:1 (Langmuir) kinetic model to the association and dissociation phases of the analyte dilution series traces. This model yielded association and dissociation rate constants (kₐ and kd, respectively) and the equilibrium dissociation constant (KD) of the interaction.

In assay [12] the target is T10, cynomolgus serum albumin (cynomolgus, UniProt A2V9Z4 25-608).
T10 construct: Amine-coupled to a CM5 BIAcore chip; also called CSA; Cyno Serum Albumin
Nature of the assay: SPR (BIAcore 3000), CSA amine-coupled on CM5 chip, ILF as analyte, 1:1 Langmuir fit, 25 C.
Excerpt: as §1, §2

Assay [13] deals with T1, human CD40. Briefly: cell-based or functional assay.

Where “and” joins values, the source holds several entries; their conditions need not be identical. Equal values may be shown once.

The results in this text go back to patent publication US20200199244A1 (published 2020).

T10 sequence (A2V9Z4 25-608 limits assumed): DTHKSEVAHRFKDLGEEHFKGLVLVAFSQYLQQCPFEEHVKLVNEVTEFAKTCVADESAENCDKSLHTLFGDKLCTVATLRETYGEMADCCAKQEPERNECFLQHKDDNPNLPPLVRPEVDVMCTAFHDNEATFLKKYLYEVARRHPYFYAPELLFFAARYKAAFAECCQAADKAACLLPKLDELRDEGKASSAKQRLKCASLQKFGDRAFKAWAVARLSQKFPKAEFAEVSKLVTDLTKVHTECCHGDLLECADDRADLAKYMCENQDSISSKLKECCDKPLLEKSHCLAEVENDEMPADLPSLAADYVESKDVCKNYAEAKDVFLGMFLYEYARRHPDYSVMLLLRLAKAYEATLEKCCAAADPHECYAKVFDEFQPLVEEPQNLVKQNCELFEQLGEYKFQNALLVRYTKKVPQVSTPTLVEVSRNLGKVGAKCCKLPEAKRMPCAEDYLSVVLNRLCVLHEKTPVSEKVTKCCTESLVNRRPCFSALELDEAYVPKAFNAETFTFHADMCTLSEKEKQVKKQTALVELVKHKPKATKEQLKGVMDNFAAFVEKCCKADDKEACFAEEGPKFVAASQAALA
T9 sequence (P02768 25-609 limits assumed): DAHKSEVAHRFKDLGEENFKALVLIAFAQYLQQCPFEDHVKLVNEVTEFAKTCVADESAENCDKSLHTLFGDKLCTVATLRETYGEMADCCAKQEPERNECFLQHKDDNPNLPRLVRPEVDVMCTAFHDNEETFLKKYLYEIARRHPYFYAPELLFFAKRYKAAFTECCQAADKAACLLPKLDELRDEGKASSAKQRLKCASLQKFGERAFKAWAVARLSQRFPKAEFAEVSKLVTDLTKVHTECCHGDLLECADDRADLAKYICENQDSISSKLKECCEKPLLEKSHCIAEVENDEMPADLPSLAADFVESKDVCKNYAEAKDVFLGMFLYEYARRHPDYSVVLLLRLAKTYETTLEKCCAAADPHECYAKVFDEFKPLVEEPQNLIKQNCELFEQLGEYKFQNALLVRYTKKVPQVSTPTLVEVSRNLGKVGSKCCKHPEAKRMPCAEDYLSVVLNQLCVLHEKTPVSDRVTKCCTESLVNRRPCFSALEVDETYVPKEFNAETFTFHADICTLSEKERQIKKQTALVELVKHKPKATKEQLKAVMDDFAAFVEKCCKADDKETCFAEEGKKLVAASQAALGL

B1: DMS0654 BMS3h-56-201-AST-DOM7h-11-3 (bispecific antibody)
chain: EVQLLESGGGLVQPGGSLRLSCAASGFTFRDYEMWWVRQAPGKGLERVSAINPQGTRTYYADSVKGRFTISRDNSKNTLYLQMNSLRAEDTAVYYCAKLPFYFQEWGQGTLVTVSSASTDIQMTQSPSSLSASVGDRVTITCRASRPIGTTLSWYQQKPGKAPKLLILWNSRLQSGVPSRFSGSGSGTDFTLTISSLQPEDFATYYCAQAGTHPTTFGQGTKVEIKR
notes: AlbudAb inline fusion (ILF): an anti-CD40 dAb and an anti-serum-albumin dAb joined by a linker in one polypeptide
As a reminder, the EC50 is the concentration that produces a half-maximal response. For B1, the EC50 was found to be 15 nM in [1] and 8.6 nM in assay [2].

B2: DMS0656 BMS3h-56-258-AST-DOM7h-11-3 (bispecific antibody)
chain: EVQLLESGGGLVQPGGSLRLSCAASGFTFRDYEMWWVRQAPGKGLERVSAINPQGTRTYYADSVKGRFTISRDNSKNTLYLQMNSLRAEDTAVYYCAKLPFYFHEWGQGTLVTVSSASTDIQMTQSPSSLSASVGDRVTITCRASRPIGTTLSWYQQKPGKAPKLLILWNSRLQSGVPSRFSGSGSGTDFTLTISSLQPEDFATYYCAQAGTHPTTFGQGTKVEIKR
notes: as for B1
For B2, the EC50 in assay [1] turned out to be 11.8 nM; in [2], 26.8 nM.

B3: DMS0655 BMS3h-56-201-AST-DOM7h-11-87 (bispecific antibody)
chain: EVQLLESGGGLVQPGGSLRLSCAASGFTFRDYEMWWVRQAPGKGLERVSAINPQGTRTYYADSVKGRFTISRDNSKNTLYLQMNSLRAEDTAVYYCAKLPFYFQEWGQGTLVTVSSASTDIQMTQSPSSLSASVGDRVTITCRASRPIGTMLSWYQQKPGKAPKLLILAFSRLQSGVPSRFSGSGSGTDFTLTISSLQPEDFATYYCAQAGTHHTTFGQGTKVEIKR
notes: as for B1
Turning to B3, the EC50 in assay [1] amounted to 6.3 nM; in assay [2], 2.7 nM.

B4: DMS0657 BMS3h-56-258-AST-DOM7h-11-87 (bispecific antibody)
chain: EVQLLESGGGLVQPGGSLRLSCAASGFTFRDYEMWWVRQAPGKGLERVSAINPQGTRTYYADSVKGRFTISRDNSKNTLYLQMNSLRAEDTAVYYCAKLPFYFHEWGQGTLVTVSSASTDIQMTQSPSSLSASVGDRVTITCRASRPIGTMLSWYQQKPGKAPKLLILAFSRLQSGVPSRFSGSGSGTDFTLTISSLQPEDFATYYCAQAGTHHTTFGQGTKVEIKR
notes: as for B1
With B4, the values for the EC50 in [1] and in [2] were 6.8 nM and 16.6 nM, respectively.

B5: BMS3h-217-16 (other)
VL: DIQMTQSPSSLSASVGDRVTITCRASHFIGTLLSWYQQKPRKAPKLLITYGSLLQSGVPSRFSGSGSGTDFTLTISSLQPEDFATYYCGQGVLWPPTFGQGTKVEIKR
notes: Anti-human CD40 domain antibody (dAb), single V kappa domain
The Kd is the free concentration of one partner at which half of the binding sites on the other are occupied at equilibrium, for simple one-to-one binding. The koff is a measure of how fast the partners let go of each other. As usually defined, the kon is a measure of how fast the partners come together. As for B5, the Kd is 0.26 nM in assay [3]; 0.47 nM in assay [4]; 0.43 nM in assay [5]; 0.35 nM in assay [6]; 0.27 nM in assay [7]; 0.41 nM in assay [8]. For the same molecule, the values for the Kd in assay [9] and in assay [10] were 0.22 nM and 0.35 nM, respectively. Also, the koff in [3] is 0.000847 s⁻¹; in assay [4], 0.0017 s⁻¹; in [5] it was 0.00147 s⁻¹; in assay [6], 0.00152 s⁻¹; in assay [7], 0.00104 s⁻¹; in assay [8] it was 0.00167 s⁻¹. Moreover, the koff in [9] amounted to 0.000991 s⁻¹; in assay [10] it was 0.00168 s⁻¹. Also, the kon in assay [3] worked out at 3.3e+06 M⁻¹ s⁻¹; in assay [4], 3.65e+06 M⁻¹ s⁻¹; in assay [5], 3.44e+06 M⁻¹ s⁻¹; in [6], 4.39e+06 M⁻¹ s⁻¹; in assay [7], 3.78e+06 M⁻¹ s⁻¹; in [8], 4.06e+06 M⁻¹ s⁻¹. Further, the kon in assay [9] came to 4.47e+06 M⁻¹ s⁻¹; in [10], 4.83e+06 M⁻¹ s⁻¹.

B6: BMS3h-217-5 (other)
VL: DIQMTQSPSFLSASVGDRVTITCRASHFIATLLSWYQQKPGKAPKLLITYGSLLQSGVPSRFSGSGSGTDFTLTISSLQPEDFATYYCGQGVLWPPTFGQGTKVEIKR
notes: as for B5
With B6, the Kd in [3] came out at 0.48 nM; in assay [4], 0.99 nM; in [5], 0.86 nM; in [6], 0.93 nM; in assay [7], 0.72 nM; in assay [8] it was 0.99 nM. The Kd in assay [9] was found to be 0.47 nM; in [10] it was 0.94 nM. Also, the koff in assay [3] stood at 0.000981 s⁻¹; in [4], 0.00242 s⁻¹; in assay [5], 0.00212 s⁻¹; in assay [6], 0.00259 s⁻¹; in assay [7], 0.00196 s⁻¹; in assay [8], 0.00251 s⁻¹. In addition, the results for the koff in assay [9] and in assay [10] were 0.00127 s⁻¹ and 0.00299 s⁻¹, respectively. Also, the kon in assay [3] is 2.03e+06 M⁻¹ s⁻¹; in assay [4], 2.44e+06 M⁻¹ s⁻¹; in [5] it was 2.46e+06 M⁻¹ s⁻¹; in assay [6] it was 2.78e+06 M⁻¹ s⁻¹; in [7] it was 2.73e+06 M⁻¹ s⁻¹; in [8], 2.55e+06 M⁻¹ s⁻¹. Also, the kon in assay [9] came out at 2.71e+06 M⁻¹ s⁻¹; in [10], 3.17e+06 M⁻¹ s⁻¹.

B7: BMS3h-217-23 (other)
VL: DIQMTQSPSSLSASVGDRVTITCRASHFIGSLLSWYQVKPGKAPKLLITYGSLLQSGVPSRFSGSGSGTDFTLTISSLQPEDFATYYCGQGVLWPATFGQGTTVEIKR
notes: as for B5
Turning to B7, the Kd was determined as 1.52 nM in assay [3]; 2.21 nM in assay [4]; 1.9 nM in assay [5]; 1.61 nM in assay [6]; 1.22 nM in [7]; 1.95 nM in assay [8]. Moreover, the Kd in assay [9] is 0.78 nM; in assay [10], 1.59 nM. The koff is 0.00163 s⁻¹ in assay [3]; 0.00287 s⁻¹ in assay [4]; 0.00235 s⁻¹ in [5]; 0.00268 s⁻¹ in assay [6]; 0.00186 s⁻¹ in assay [7]; 0.00291 s⁻¹ in assay [8]. Moreover, the koff came to 0.00127 s⁻¹ in [9] and 0.00262 s⁻¹ in assay [10]. For the same molecule, the association rate constant (kon) in assay [3] is 1.07e+06 M⁻¹ s⁻¹; in assay [4], 1.3e+06 M⁻¹ s⁻¹; in assay [5], 1.24e+06 M⁻¹ s⁻¹; in assay [6], 1.67e+06 M⁻¹ s⁻¹; in [7], 1.53e+06 M⁻¹ s⁻¹; in assay [8], 1.49e+06 M⁻¹ s⁻¹. In addition, the kon in assay [9] and in assay [10] was 1.64e+06 M⁻¹ s⁻¹ throughout.

B8: DMS0664 DOM7h-11-69-TVAAPS-BMS3h-56-201 (bispecific antibody)
chain: DIQMTQSPSSLSASVGDRVTITCRASRPIGTMLSWYQQKPGKAPKLLILAFSRLQSGVPSRFSGSGSGTDFTLTISSLQPEDFATYYCAQAGVHPTTFGQGTKVEIKRTVAAPSEVQLLESGGGLVQPGGSLRLSCAASGFTFRDYEMWWVRQAPGKGLERVSAINPQGTRTYYADSVKGRFTISRDNSKNTLYLQMNSLRAEDTAVYYCAKLPFYFQEWGQGTLVTVSS
notes: as for B1
Consider B8, for which, in [11], the Kd is 0.57 nM and 1.59 nM; the koff was 0.00142 s⁻¹ and 0.00149 s⁻¹; the kon is 2.5e+06 M⁻¹ s⁻¹ and 930000 M⁻¹ s⁻¹. Further, in assay [12], the Kd is 1.09 nM and 2.97 nM; the koff was 0.00273 s⁻¹ and 0.00272 s⁻¹; the kon is 2.51e+06 M⁻¹ s⁻¹ and 920000 M⁻¹ s⁻¹. In addition, in assay [13], the “ICAM-1 Cell Assay EC50 (nM), 10% bovine serum” value is 16.5 nM and the “ICAM-1 Cell Assay EC50 (nM), 10% human serum” value was over 1000 nM.

B9: DMS0658 DOM7h-11-3-TVAAPS-BMS3h-56-201 (bispecific antibody)
chain: DIQMTQSPSSLSASVGDRVTITCRASRPIGTTLSWYQQKPGKAPKLLILWNSRLQSGVPSRFSGSGSGTDFTLTISSLQPEDFATYYCAQAGTHPTTFGQGTKVEIKRTVAAPSEVQLLESGGGLVQPGGSLRLSCAASGFTFRDYEMWWVRQAPGKGLERVSAINPQGTRTYYADSVKGRFTISRDNSKNTLYLQMNSLRAEDTAVYYCAKLPFYFQEWGQGTLVTVSS
notes: as for B1
Regarding B9, the EC50 in [1] was 12.2 nM; in [2], 9.1 nM.
